The text below walks through data of paper PMC6077249, “Insights into Centromere DNA Bending Revealed by the Cryo-EM Structure of the Core Centromere Binding Factor 3 with Ndc10”.

One data set has as its target Cep3ΔN (Saccharomyces cerevisiae, UniProt P40969 47-608). The data set can be described thus: EMSA; DNA 1.6 uM; EMSA: 25 mM HEPES pH 8.0, 200 mM KCl, 2 mM DTT, 10% glycerol, 0.02% NP-40, 10 mM MgCl2, 10 uM ZnCl2; room temperature 45 min; native PAGE at 4 C. The settings on record: protein: recombinant; tags: N-terminal His; chain copies: 2; label: fluorescent label, singly or doubly labeled. Background: In EMSA bound probe runs differently from free probe, usually more slowly.

In data set [1] the target is T1, Ctf13;Skp1;Cep3ΔN (Saccharomyces cerevisiae;Saccharomyces …, UniProt P35203;P52286;P40969 1-478;1-194;47-608, ||). Described as above. The following applies: protein: recombinant;recombinant;recombinant; tags: C-terminal CBP;;N-terminal His; copies: 1;1;2; label: fluorescent label, singly or doubly labeled.
T1 sequence (P35203 whole entry, stated change not applied, chain 1 of 3): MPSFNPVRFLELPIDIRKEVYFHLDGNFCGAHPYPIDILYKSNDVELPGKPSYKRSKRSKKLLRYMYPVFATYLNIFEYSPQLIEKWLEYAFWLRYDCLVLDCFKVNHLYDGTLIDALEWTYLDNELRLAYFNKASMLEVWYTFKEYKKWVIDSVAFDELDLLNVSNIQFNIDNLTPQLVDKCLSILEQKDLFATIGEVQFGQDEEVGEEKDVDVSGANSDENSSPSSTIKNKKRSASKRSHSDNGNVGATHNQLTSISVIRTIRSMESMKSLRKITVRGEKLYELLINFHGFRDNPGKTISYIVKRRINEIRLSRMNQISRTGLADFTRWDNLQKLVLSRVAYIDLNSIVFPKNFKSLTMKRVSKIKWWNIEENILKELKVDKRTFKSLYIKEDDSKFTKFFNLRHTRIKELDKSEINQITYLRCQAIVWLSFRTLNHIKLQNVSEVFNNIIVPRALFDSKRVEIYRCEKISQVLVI
T1 sequence (P52286 whole entry, stated change not applied, chain 2 of 3): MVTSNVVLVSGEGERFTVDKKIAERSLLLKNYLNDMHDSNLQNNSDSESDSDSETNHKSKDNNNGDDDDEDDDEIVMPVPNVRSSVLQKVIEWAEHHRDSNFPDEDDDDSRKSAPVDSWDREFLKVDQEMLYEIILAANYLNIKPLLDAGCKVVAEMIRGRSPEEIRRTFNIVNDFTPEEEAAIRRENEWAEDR
T1 sequence (P40969 47-608, stated change not applied, chain 3 of 3): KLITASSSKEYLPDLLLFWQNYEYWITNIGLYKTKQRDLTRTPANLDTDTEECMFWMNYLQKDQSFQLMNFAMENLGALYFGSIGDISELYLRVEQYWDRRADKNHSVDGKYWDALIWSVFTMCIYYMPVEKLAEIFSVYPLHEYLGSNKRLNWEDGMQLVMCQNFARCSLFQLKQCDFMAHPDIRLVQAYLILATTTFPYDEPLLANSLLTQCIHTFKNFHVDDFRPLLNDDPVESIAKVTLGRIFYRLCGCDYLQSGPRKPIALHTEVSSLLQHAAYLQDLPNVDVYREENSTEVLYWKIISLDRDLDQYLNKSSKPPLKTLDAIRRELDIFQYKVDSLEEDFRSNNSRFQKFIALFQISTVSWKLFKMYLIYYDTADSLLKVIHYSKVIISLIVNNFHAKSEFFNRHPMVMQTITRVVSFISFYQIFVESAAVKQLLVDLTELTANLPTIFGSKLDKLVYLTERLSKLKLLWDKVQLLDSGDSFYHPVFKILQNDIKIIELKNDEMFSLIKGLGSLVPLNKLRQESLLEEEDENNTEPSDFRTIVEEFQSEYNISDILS
A further data set has as its target Cep3 full length (Saccharomyces cerevisiae, UniProt P40969 1-608). The data set can be described thus: EMSA; DNA 1.6 uM, protein 6.4 uM; binds tightly; EMSA: 25 mM HEPES pH 8.0, 200 mM KCl, 2 mM DTT, 10% glycerol, 0.02% NP-40, 10 mM MgCl2, 10 uM ZnCl2; room temperature 45 min; native PAGE at 4 C. The following applies: protein: recombinant; tags: N-terminal His; chain copies: 2; label: fluorescent label, singly or doubly labeled.

In data set [2] the target is T1, Ctf13;Skp1;Cep3ΔN. The data set can be described thus: competition; 80 uM unlabeled competitor, 50x; competes labeled CDEIII; EMSA: 25 mM HEPES pH 8.0, 200 mM KCl, 2 mM DTT, 10% glycerol, 0.02% NP-40, 10 mM MgCl2, 10 uM ZnCl2; room temperature 45 min; native PAGE at 4 C. The following applies: protein: recombinant;recombinant;recombinant; tags: C-terminal CBP;;N-terminal His; copies: 1;1;2.

Cep3ΔN, sequence (P40969 47-608, stated change not applied): as the sequence (P40969 47-608, stated change not applied, chain 3 of 3) above
Cep3 full length, sequence (P40969 whole entry): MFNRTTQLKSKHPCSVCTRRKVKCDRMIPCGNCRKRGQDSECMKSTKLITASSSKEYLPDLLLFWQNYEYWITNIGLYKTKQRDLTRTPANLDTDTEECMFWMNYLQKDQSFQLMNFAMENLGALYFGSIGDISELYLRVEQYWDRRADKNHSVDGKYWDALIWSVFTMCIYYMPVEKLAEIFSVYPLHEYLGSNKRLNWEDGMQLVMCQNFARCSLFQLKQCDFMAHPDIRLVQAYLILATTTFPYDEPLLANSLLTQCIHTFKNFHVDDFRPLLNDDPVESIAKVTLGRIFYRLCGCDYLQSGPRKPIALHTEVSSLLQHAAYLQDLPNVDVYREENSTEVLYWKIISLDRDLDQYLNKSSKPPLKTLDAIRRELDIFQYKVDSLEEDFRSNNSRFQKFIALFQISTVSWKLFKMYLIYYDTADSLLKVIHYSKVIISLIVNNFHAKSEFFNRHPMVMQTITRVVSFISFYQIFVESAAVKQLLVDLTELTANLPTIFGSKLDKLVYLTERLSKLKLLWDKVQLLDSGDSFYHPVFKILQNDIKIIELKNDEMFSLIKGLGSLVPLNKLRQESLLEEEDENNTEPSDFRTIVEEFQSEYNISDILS

B1: CDEIII labeled (dsDNA)
DNA 1: AATATTAGTGTATTTGATTTCCGAAAGTTAAA
DNA 2: TTTAACTTTCGGAAATCAAATACACTAATATT
With B1, the binding result with Cep3ΔN is recorded as “no binding”; in the data set with Ctf13;Skp1;Cep3ΔN [1], “binds”; with Cep3 full length, “binds”.

B2: CDEIII unlabeled competitor (dsDNA)
DNA 1: AATATTAGTGTATTTGATTTCCGAAAGTTAAA
DNA 2: TTTAACTTTCGGAAATCAAATACACTAATATT
As for B2, the binding result with Ctf13;Skp1;Cep3ΔN [2] is recorded as “binds”.
